B1: RAP: inhibitor of LRP1 (protein, UniProt P30533 35-357, looked up)
Alpha-2-macroglobulin …: YSREKNQPKPSPKRESGEEFRMEKLNQLWEKAQRLHLPPVRLAELHADLKIQERDELAWKKLKLDGLDEDGEKEARLIRNLNVILAKYGLDGKKDARQVTSNSLSGTQEDGLDDPRLEKLWHKAKTSGKFSGEELDKLWREFLHHKEKVHEYNVLLETLSRTEEIHENVISPSDLSDIKGSVLHSRHTELKEKLRSINQGLDRLRRVSHQGYSTEAEFEEPRVIDLWDLAQSANLTDKELEAFREELKHFEAKIEKHNHYQKQLEIAHEKLRHAESVGDGERVSRSREKHALLEGRTKELGYTVKKHLQDLSGRISRARHNEL
B2: NE-tPA: non-enzymatically active tPA, serine-478 replaced by alanine (Innovative Research) (protein)
chain: SYQVICRDEKTQMIYQQHQSWLRPVLRSNRVEYCWCNSGRAQCHSVPVKSCSEPRCFNGGTCQQALYFSDFVCQCPEGFAGKCCEIDTRATCYEDQGISYRGTWSTAESGAECTNWNSSALAQKPYSGRRPDAIRLGLGNHNYCRNPDRDSKPWCYVFKAGKYSSEFCSTPACSEGNSDCYFGNGSAYRGTHSLTESGASCLPWNSMILIGKVYTAQNPSAQALGLGKHNYCRNPDGDAKPWCHVLKNRRLTWEYCDVPSCSTCGLRQYSQPQFRIKGGLFADIASHPWQAAIFAKHRRSPGERFLCGGILISSCWILSAAHCFQERFPPHHLTVILGRTYRVVPGEEEQKFEVEKYIVHKEFDDDTYDNDIALLQLKSDSSRCAQESSVVRTVCLPPADLQLPDWTECELSGYGKHEALSPFYSERLKEAHVRLYPSSRCTAQHLLNRTVTDNMLCAGDTRSGGPQANLHDACQGDSGGPLVCLNDGRMTLVGIISWGLGCGQKDVPGVYTKVTNYLDWIRDNMRP

Columns and labels:
MMP-2, MMP-9, MMP-13 [1] = assay: MMP expression in PA treated HTM cells (Examples 17, 18); assay type: cell-based
C57BL/6J mice = assay: Outflow facility in TA and protein treated C57BL/6J mouse eyes (Example 13); assay type: in vivo; conditions: TA five days before intravitreal protein (2 μl, 5 μg/μl); two days after injection
Protocol: C57BL/6J mice were divided into two groups:
1) Animals receiving bilateral steroid (TA) injection subconjunctivally five days prior to protein injection (FIG. 10b) and 2) Animals not receiving subconjunctival steroids (FIG. 10c).
(§1) 1) Animals that received unilateral intravitreal injection with 2 μl of tPA (5 μg/μl, Actilyse; Boehringer Ingelheim, Ingelheim am Rhein, Germany) while the contralateral eye received 2 μl of BSA (5 μg/μl; Gold Biotechnology, St Louis, Mo., USA), and 2) Animals that received unilateral intravitreal injections with 2 μl of non-enzymatically active tPA (NE-tPA/S478A-tPA) (5 μg/μl; Innovative Research, Novi, Mich., USA) while the contralateral eye received 2 μl of BSA. Animals were euthanized two days after intravitreal injection.
(§2) Outflow facility determination: Mouse eyes were enucleated immediately after euthanasia. Outflow facility was determined using a constant pressure method, as previously described. Pressure was raised in steps of 4 cmH2O, from 8 cmH2O (5.88 mmHg) to 32 cmH2O (23.54 mmHg) by increasing the height of a column of fluid of BSS. […] Flow was constantly measured via a microfluidic flow sensor (0.07-1.5 uL/min, MFS1; Elveflow, Paris, France). […] Any eyes that developed visible leaks during outflow facility determination, or that had pressure-flow correlations with R^2<0.9, were excluded from analysis but were used for RNA quantification.

Mmp-2, Mmp-9, Mmp-13 [2] = assay: Mmp expression in TA and protein treated C57BL/6J eyes (Example 13); assay type: in vivo, mouse; conditions: vs BSA treated controls
PlatKO mice = assay: Outflow facility in protein treated PlatKO mouse eyes (Example 14); assay type: in vivo; conditions: intravitreal protein
Protocol: (§3) PlatKO and Mmp-9KO mice were also not given steroids prior to protein injections (FIG. 10c). Within each cohort, animals were divided into two groups:
as §1
as §2, with “BSS. Steady state was initially achieved after 10 minutes.” for “BSS.”

Mmp-2, Mmp-9, Mmp-13 [3] = assay: Mmp expression in protein treated PlatKO eyes (Example 14); assay type: in vivo, mouse; conditions: vs BSA treated eyes
Protocol: Tissue collection and confirmation of transgene expression: After outflow facility determination in adenovirus treated mice, mCherry expression in the TM was determined in all AdPLAT and AdPLATNE injected eyes. The eyes were dissected on ice to isolate a rim of tissue containing the TM by removing most of the iris and ciliary body. […] After observation, dissected rims were immediately immersed in RNA stabilizing agent (RNAlater, Invitrogen by ThermoFisher Scientific, Waltham, Mass., USA) and frozen. […]
RNA isolation and quantitative real time PCR: Tissue collected was pooled (four eyes) and homogenized in TRIzol reagent (Life Technologies, Carlsbad, Calif., USA). […] RNA concentration was determined with a Nanodrop ND-1000 Spectrophotometer (ThermoFisher Scientific, Waltham, Mass., USA). cDNA was synthesized by using High-Capacity cDNA Reverse Transcription Kit (Applied Biosystems, Waltham, Mass., USA) according to manufacturer's protocol. Quantitative real-time PCR (qRT-PCR) was performed by using Green-2-Go qPCR Mastermix-ROX (BioBasic, Amherst, N.Y., USA) on a QuantStudio 6 Flex thermal cycler (Applied Biosystems, Carlsbad, Calif., USA).
mRNA expression of sheep PLAT and mouse Mmp-2, Mmp-9, and Mmp-13 in angle ring tissues was determined. […] The relative fold change was calculated by using the ΔΔCt method. […]

[4] = test system: Mmp-2, Mmp-9, Mmp-13, Plat; assay: Mmp and Plat expression in protein treated C57BL/6J eyes not exposed to steroids (Example 15); assay type: in vivo, mouse; conditions: C57BL/6J not exposed to steroids
Mmp-9KO mice = assay: Outflow facility in protein treated Mmp-9KO mouse eyes (Example 16); assay type: in vivo; conditions: intravitreal protein, p>0.05
Protocol: as §3, §1
as §2, with “BSS. Steady state was initially achieved after 10 minutes.” for “BSS.”

Tg-MYOCY437H mice = assay: Outflow facility in Tg-MYOCY437H mouse eyes (Example 19); assay type: in vivo
Protocol: To investigate whether corticosteroids affect outflow facility in Tg-MYOCY437H mice, animals received bilateral injections (20 μl) with either triamcinolone acetonide (TA) (40 mg/ml, Kenalog-40; Bristol-Myers Squibb, NY, USA) suspension or phosphate-buffered saline (PBS) (Gibco, ThermoFisher Scientific, Waltham, Mass., USA) subconjunctivally using a 100 μL Hamilton syringe with a 26-gauge needle (Precision Glide, Becton Dickinson & CO, Franklin Lakes, N.J., USA). They were euthanized one week later for outflow facility measurement.
To investigate whether tPA can affect outflow facility in Tg-MYOCY437H mice, and determine whether tPA enzymatic action is necessary for such an effect, intravitreal injections were performed using a 10 μL Hamilton syringe with 36-gauge stainless steel needles (WPI Inc, Sarasota, Fla., USA). […] Animals were sacrificed either two or five days after intravitreal injections for outflow facility measurement. […]
Mouse eyes were enucleated immediately after euthanasia. Outflow facility was determined using a microfluidic flow sensor (0.07-1.5 uL/min, MFS1; Elveflow, Paris, France) and constant pressure method, as previously described (Hu, Barron et al. 2019). […] Any eyes that developed visible leaks or that had pressure-flow correlations with […] were excluded from analysis but were used for RNA quantification.

Mmp-2, Mmp-9, Mmp-13 [5] = assay: Mmp expression in Tg-MYOCY437H angle ring tissue (Example 19); assay type: in vivo, mouse; conditions: 2 days, vs BSA treated eyes
Protocol: Eyes were flash frozen in liquid nitrogen after outflow facility determination and subsequently dissected on ice to obtain the angle ring tissues containing the TM, as previously described (Kumar, Shah et al. 2013). Dissected TM tissues were immersed in RNAlater solution (Invitrogen, Waltham, Mass., USA) and then snap-frozen and stored at −80° C. until RNA extraction. Tissue collected was pooled (four eyes) and homogenized in TRIzol reagent for RNA isolation, per manufacturer's instructions (Life Technologies, Carlsbad, Calif., USA). RNA concentration was determined with a Nanodrop ND-1000 Spectrophotometer (Thermo Scientific, Wilmington, Del., USA). cDNA was synthesized by using High-Capacity cDNA Reverse Transcription Kit (Applied Biosystems, Waltham, Mass., USA) according to manufacturer's protocol. Quantitative real-time PCR (qRT-PCR) was performed by using Green-2-Go qPCR Mastermix-ROX (Bio Basic, Amherst, N.Y., USA) on a QuantStudio 6 Flex thermal cycler (Applied Biosystems, Carlsbad, Calif., USA). mRNA expression of Plat, Plau, Pai-1, Mmp-2, Mmp-9, and Mmp-13 in angle ring tissues was determined. Primers were designed by using Primer-BLAST (https://www.ncbi.nlm.nih.gov/tools/primer-blast/index.cgi?LINK_LOC=BlastHome; in the public domain); primer sequences are listed in Table 2. Primer specificity was confirmed by agarose gel electrophoresis and multiple-sized amplification products were absent on inspection of melting curves. Target mRNA expression values were normalized to the expression levels of Rps11 (ribosomal protein S11). The relative fold change was calculated by using the ΔΔCt method (Hu, Wang et al. 2015). Outliers identified via the Thompson Tau test were removed from analysis.

Molecule	MMP-9 expression (MMP-2, MMP-9, MMP-13 [1]; added to PA+NE-tPA, vs PA+NE-tPA treated cells)	outflow facility, mean±standard deviation (C57BL/6J mice)	Mmp-2, Mmp-9 and Mmp-13 expression (Mmp-2, Mmp-9, Mmp-13 [2])	increase in outflow facility compared to BSA treated eyes (PlatKO mice)	outflow facility, mean±standard deviation (PlatKO mice; no steroid, two days)	Mmp-2 expression (Mmp-2, Mmp-9, Mmp-13 [3])	Mmp-9 expression (Mmp-2, Mmp-9, Mmp-13 [3])	endogenous Plat expression [4]	gene expression changes in Mmp-2, Mmp-9 and Mmp-13 ([4]; vs BSA)	effect on outflow facility (Mmp-9KO mice)	MMP-2 expression (MMP-2, MMP-9, MMP-13 [1]; PA treated HTM cells, between treatments)	expression (FIG. 17C, MMP-9) (MMP-2, MMP-9, MMP-13 [1]; PA treated HTM cells, vs PA+BSA)	improvement of outflow facility (Tg-MYOCY437H mice)	Mmp-2 expression (Mmp-2, Mmp-9, Mmp-13 [5])	Mmp-9 expression (Mmp-2, Mmp-9, Mmp-13 [5])	Mmp-13 expression (Mmp-2, Mmp-9, Mmp-13 [5])
B1	significantly lower															
B2		114±40.3×10^−5 μl/min/mmHg	significant upregulation	51%	92±42×10^−5 μl/min/mmHg	not significantly different	significant upregulation	did not cause significant changes	not significantly different	did not increase	not significantly different	significant upregulation	~37%	no significant difference	significantly higher	significantly higher

Source: patent publication US20210220450A1, “TREATMENT OF AN IOP CONDITION” (The Research Foundation for The State University of New York, priority 2013, published 2021)
